This note sets out measurements from patent publication US20210261685A1 (Alector, published 2021).

T1: human MerTK extracellular domain (ECD), recombinant (human, UniProt Q12866 21-505)
T1 construct: also called huMerTK; not shown: polyHis tag or TEVS/Thrombin/murine IgG2a Fc tag
T1 sequence: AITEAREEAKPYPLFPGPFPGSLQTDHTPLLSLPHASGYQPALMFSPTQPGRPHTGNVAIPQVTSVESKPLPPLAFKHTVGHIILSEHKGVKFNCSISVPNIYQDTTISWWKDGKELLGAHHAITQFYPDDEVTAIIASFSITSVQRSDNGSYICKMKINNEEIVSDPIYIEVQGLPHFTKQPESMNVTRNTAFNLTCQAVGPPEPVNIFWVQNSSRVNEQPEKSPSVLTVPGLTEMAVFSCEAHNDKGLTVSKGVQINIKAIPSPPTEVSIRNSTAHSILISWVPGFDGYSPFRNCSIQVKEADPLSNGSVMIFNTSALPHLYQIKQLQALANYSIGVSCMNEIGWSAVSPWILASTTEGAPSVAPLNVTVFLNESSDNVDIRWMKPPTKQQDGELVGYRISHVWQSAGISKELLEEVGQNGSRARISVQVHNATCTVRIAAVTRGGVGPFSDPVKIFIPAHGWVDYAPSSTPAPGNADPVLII

T2: murine MerTK extracellular domain (ECD), recombinant (mouse, UniProt Q60805 19-497)
T2 construct: also called moMerTK; mouse MerTK; not shown: polyHis tag or TEVS/Thrombin/murine IgG2a Fc tag
T2 sequence: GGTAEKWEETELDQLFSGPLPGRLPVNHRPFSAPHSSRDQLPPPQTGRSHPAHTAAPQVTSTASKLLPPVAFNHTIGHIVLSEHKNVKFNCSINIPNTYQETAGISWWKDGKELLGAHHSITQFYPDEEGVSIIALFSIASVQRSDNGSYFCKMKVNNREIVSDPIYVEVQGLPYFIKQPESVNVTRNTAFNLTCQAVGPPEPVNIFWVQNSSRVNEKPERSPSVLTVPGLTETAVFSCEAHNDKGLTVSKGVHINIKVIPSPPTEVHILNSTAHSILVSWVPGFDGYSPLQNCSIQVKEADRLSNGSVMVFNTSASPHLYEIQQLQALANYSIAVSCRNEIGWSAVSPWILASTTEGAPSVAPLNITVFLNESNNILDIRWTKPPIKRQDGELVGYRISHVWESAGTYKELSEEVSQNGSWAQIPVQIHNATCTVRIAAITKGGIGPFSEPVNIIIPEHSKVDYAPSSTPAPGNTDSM

T3: cyno MerTK extracellular domain (ECD), recombinant (cynomolgus monkey, UniProt Q12866 21-505 (human entry))
T3 construct: also called cynomolgus MerTK; not shown: polyHis tag or TEVS/Thrombin/murine IgG2a Fc tag
T3 chain: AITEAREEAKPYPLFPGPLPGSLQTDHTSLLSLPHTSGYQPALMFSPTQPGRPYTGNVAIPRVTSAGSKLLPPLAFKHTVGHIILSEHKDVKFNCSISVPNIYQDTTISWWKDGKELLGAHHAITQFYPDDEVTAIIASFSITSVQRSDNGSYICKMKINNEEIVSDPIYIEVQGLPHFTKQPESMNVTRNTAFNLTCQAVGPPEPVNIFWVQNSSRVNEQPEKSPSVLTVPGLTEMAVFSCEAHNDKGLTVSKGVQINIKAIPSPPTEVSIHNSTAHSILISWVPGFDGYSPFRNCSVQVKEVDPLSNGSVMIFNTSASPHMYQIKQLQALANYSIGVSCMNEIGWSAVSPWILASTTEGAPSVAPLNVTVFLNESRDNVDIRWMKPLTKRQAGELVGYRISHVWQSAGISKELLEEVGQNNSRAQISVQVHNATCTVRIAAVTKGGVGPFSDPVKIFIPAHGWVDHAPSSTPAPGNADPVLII

B1: MTK-16.1 (antibody, V domains shown)
VH: QVQLVQSGSELKKPGASVKVSCKASGYTFTNHGMNWVRQAPGQGLEWMGWINTYTGEPTYAQGFTGRFVFSLDTSVSTAYLQISSLKAEDTAVYYCARKGVTAARYFDYWGQGTLVTVSS
VL: DIQMTQSPSSLSASVGDRVTITCKASQNVRTAVAWYQQKPGKAPKRLIYLASNRHTGVPSRFSGSGSGTEFTLTISNLQPEDFATYYCLQHWNYPLTFGGGTKVEIK
B2: MTK-16.2 (antibody, V domains shown)
VH: B1 VH with Q62D, G63D, T65K
VL: B1 VL with K24R, V104L
B3: MTK-33.13 (antibody, human IgG1, V domains shown)
VH: QVQLVQSGAEVKKPGASVKVSCKASGYTFTSYWMHWVRQAPGQGLEWIGVIDPSDNYINYNQKFQGRVTMTRDTSTSTVYMELSSLRSEDTAVYYCAREAGTRGYFDYWGQGTLVTVSS
VL: DIQMTQSPSSLSASVGDRVTITCQASRSVSNTVAWYQQKPGKAPKLLIYYASNRYTGVPSRFSGSGSGTDFTFTISSLQPEDIATYYCQQDYRSPFTFGQGTKLEIK
B4: MTK-33.5 (antibody, human IgG1, V domains shown)
VH: B3 VH with K23M, T30G
VL: B3 VL with R27Q, Y55E, A84G
B5: MTK-29.8 (antibody, human IgG1, V domains shown)
VH: QVQLVQSGSELKKPGASVKVSCKASGYIFTTYGLSWVRQAPGQGLEWMGWINTYSGVPTYTDDFKGRFVFSLDTNVSTAYLQISSLKAEDTAVYYCARYTNYGVFDYWGQGTLVTVSS
VL: DIQLTQSPSFLSASVGDRVTITCRASSSVGYMHWYQQKPGKAPKLLIYATSNLAQGVPSRFSGSGSGTEFTLTISSLQPEDFATYYCQQWGSLPFTFGQGTKLEIK
B6: MTK-29.14 (antibody, human IgG1, V domains shown)
VH: B5 VH with G26S, I28T, L34M, T59S, G66A, N75S
VL: B5 VL with S75F
B7: MTK-29.12 (antibody, human IgG1, V domains shown)
VH: B5 VH with G26S, I28T, L34M, Y54M, N75S
VL: B5 VL with S9G
B8: MTK-29.7 (antibody, human IgG1, V domains shown)
VH: B5 VH with G26S, I28T, L34M, T59S, G66A, N75S
VL: B5 VL
B9: MTK-29.17 (antibody, human IgG1, V domains shown)
VH: B5 VH with T31S, T61A, D62Q, D63G, K65T, N75S
VL: B5 VL with A25S
B10: MTK-29.15 (antibody, human IgG1, V domains shown)
VH: B5 VH with G26S, I28T, L34M, Y54M, N75S
VL: B5 VL with L11P
B11: MTK-29.16 (antibody, human IgG1, V domains shown)
VH: B5 VH with T31S, I51V, N75S
VL: B5 VL with S92R
B12: MTK-29.9 (antibody, human IgG1, V domains shown)
VH: B5 VH with T31S, N75S
VL: B5 VL with E69G
B13: MTK-29.13 (antibody, human IgG1, V domains shown)
VH: B5 VH with G26S, I28T, L34M, Y54A, N75S
VL: B5 VL with K38E
B14: MTK-29.5 (antibody, human IgG1, V domains shown)
VH: B5 VH with T31S, N75S, S85P
VL: B5 VL
B15: MTK-15.13 (antibody, human IgG1, V domains shown)
VH: QVQLVQSGSELKKPGASVKVSCKASGYTFTNYGVHWVRQAPGQGLEWMGWINTYTGEPTYAQGFTGRFVFSLDTSVSTAYLQISSLKAEDTAVYYCARGNRYAYEDYWGQGTLVTVSS
VL: EIVLTQSPATLSLSPGERATLSCRASSSVQYMHWYQQKPGQAPRPLIYATSNLASGIPARFSGSGSGTSYTLTISSLEPEDFAVYYCQQWSSNPRTFGGGTKVEIK
B16: MTK-29.10 (antibody, human IgG1, V domains shown)
VH: B5 VH with A24T, G26S, I28T, L34M, N75S
VL: B15 VL with Q30G, P45L, S69D, Y70F, S76R, S91G, N93L, R95F, V103L
B17: MTK-29.18 (antibody, human IgG1, V domains shown)
VH: B5 VH with T31S, I51V, N75S
VL: B15 VL with S28T, Q30G, P45L, S69D, Y70F, S76R, S91G, N93L, R95F, V103L
B18: MTK-29.11 (antibody, human IgG1, V domains shown)
VH: B5 VH with G26S, I28T, L34M, Y54D, N75S
VL: B15 VL with Q30G, P45L, S69D, Y70F, S76R, S91G, N93L, R95F, V103L

Substitutions are numbered along the chain they refer to.

In the first assay the target is T1, human MerTK extracellular domain (ECD), …. Description: SPR, Carterra LSA, antibody immobilised. As for the experimental part:
(§1) Binding kinetics of humanized and affinity-matured anti-MerTK antibodies of the present disclosure to human, murine, and cynomolgus MerTK proteins were evaluated as follows. Briefly, anti-MerTK antibodies were prepared by diluting to 10 μg/ml in 10 mM Acetate, pH 4.25 (Carterra, Salt Lake City, Utah), at 300 μl/well. A HC200M sensor chip (Carterra) was activated using the single channel flow cell with a 7-minute injection of a 1:1:1 mixture of 100 mM MES pH 5.5, 100 mM sulfo-NHS, 400 mM EDC (all reconstituted in MES pH 5.5; 100 μl of each mixed in vial immediately before running assay). After switching to the multi-channel array flow cell, the antibodies were injected over the activated chip in a 96-spot array for 15 minutes. The remaining unconjugated active groups on the chip were then blocked by injecting 1M Ethanolamine pH 8.5 (Carterra) for 7 minutes using the single channel flow cell.
(§2) Estimates of affinity were generated by injecting each analyte over the entire antibody array using the single channel flow cell. MerTK analytes were diluted to 33.3, 100, and 300 nM in running buffer, and injected in serial from lowest to highest concentration without regeneration. Two buffer blanks were run between each series (one species per series). Data were processed and analyzed using NextGenKIT high-throughput kinetics analysis software (Carterra). In these experiments, the anti-MerTK antibodies were human IgG1 isotype containing the Fc variant LALAPS.
(§3) The equilibrium dissociation constants (KD) were then calculated from the fitted association and dissociation rate constants (k-on and k-off) for anti-MerTK antibodies of the present disclosure.
Broadly, the Kd is the concentration at which binding is half-saturated. As for B1, the Kd stood at 86 nM.

Regarding B2, the Kd is 80 nM.

B3: the Kd is 20 nM.

In the case of B4, the Kd stood at 28 nM.

For the molecule B5, the Kd came to 23 nM.

As to B6, the Kd was 7.6 nM.

With B7, the Kd amounted to 23 nM.

On to B8, for which the Kd came to 3.6 nM.

For the molecule B9, the Kd came to 9.6 nM.

B10: the Kd came to 7.4 nM.

As for B11, the Kd came to 8.6 nM.

For B12, the Kd stood at 5.7 nM.

Take B13: the Kd was 13 nM.

Consider B14, for which the Kd was 4.4 nM.

As to B15, the equilibrium dissociation constant (Kd) was found to be 2.3 nM.

In the case of B16, the Kd amounted to 4.5 nM.

Consider B17, for which the Kd came to 4.7 nM.

Consider B18, for which the Kd was 2.1 nM.

The next assay addresses T2, murine MerTK extracellular domain …. The experiment in a line: SPR, Carterra LSA, antibody immobilised. As for the experimental part: as §1, §2, §3
In general terms: SPR reads the build-up and loss of mass on a sensor chip optically.
For B1, the binding result is “no binding (tested: 300 nM)”.

For the molecule B2, the binding result is on record as “no binding (tested: 300 nM)”.

In the case of B3, the Kd stood at 225 nM.

Take B4: the Kd worked out at 140 nM.

In the case of B5, the Kd came out at 310 nM.

Consider B6, for which the Kd came out at 100 nM.

As to B7, the equilibrium dissociation constant (Kd) came out at 250 nM.

Regarding B8, the equilibrium dissociation constant (Kd) came to 95 nM.

For the molecule B9, the Kd was 170 nM.

Regarding B10, the binding result is on record as “no binding (tested: 300 nM)”.

On to B11, for which the Kd was determined as 205 nM.

Turning to B12, the Kd amounted to 140 nM.

Take B13: the dissociation constant Kd stood at 170 nM.

With B14, the Kd is 135 nM.

With B15, the Kd was determined as 130 nM.

In the case of B16, the Kd was found to be 116 nM.

For B17, the Kd was 140 nM.

As for B18, the Kd is 59 nM.

Another assay addresses T3, cyno MerTK extracellular domain (ECD), …. The experiment in a line: SPR, Carterra LSA, antibody immobilised. As for the experimental part:
as §1, §2, §3
Consider B1, for which the Kd was found to be 170 nM.

Turning to B2, the Kd stood at 160 nM.

Take B3: the Kd was 18 nM.

As to B4, the Kd amounted to 26 nM.

Regarding B5, the Kd came to 22.5 nM.

For B6, the equilibrium dissociation constant (Kd) was determined as 7.3 nM.

Regarding B7, the Kd came out at 21 nM.

On to B8, for which the Kd amounted to 3.2 nM.

B9: the Kd came out at 9.9 nM.

For the molecule B10, the Kd was found to be 8.4 nM.

Consider B11, for which the Kd amounted to 8.8 nM.

On to B12, for which the Kd amounted to 5.8 nM.

B13: the Kd came out at 11 nM.

With B14, the Kd is 4.4 nM.

B15: the equilibrium dissociation constant (Kd) was 2.8 nM.

On to B16, for which the Kd stood at 4.2 nM.

Turning to B17, the Kd came out at 4.9 nM.

As for B18, the dissociation constant (Kd) was determined as 2.4 nM.
